The target of data set [1] is T1, variant nuclease L38G combination (P14R, D32R, I61R, E311R, L38G).
T1 chain: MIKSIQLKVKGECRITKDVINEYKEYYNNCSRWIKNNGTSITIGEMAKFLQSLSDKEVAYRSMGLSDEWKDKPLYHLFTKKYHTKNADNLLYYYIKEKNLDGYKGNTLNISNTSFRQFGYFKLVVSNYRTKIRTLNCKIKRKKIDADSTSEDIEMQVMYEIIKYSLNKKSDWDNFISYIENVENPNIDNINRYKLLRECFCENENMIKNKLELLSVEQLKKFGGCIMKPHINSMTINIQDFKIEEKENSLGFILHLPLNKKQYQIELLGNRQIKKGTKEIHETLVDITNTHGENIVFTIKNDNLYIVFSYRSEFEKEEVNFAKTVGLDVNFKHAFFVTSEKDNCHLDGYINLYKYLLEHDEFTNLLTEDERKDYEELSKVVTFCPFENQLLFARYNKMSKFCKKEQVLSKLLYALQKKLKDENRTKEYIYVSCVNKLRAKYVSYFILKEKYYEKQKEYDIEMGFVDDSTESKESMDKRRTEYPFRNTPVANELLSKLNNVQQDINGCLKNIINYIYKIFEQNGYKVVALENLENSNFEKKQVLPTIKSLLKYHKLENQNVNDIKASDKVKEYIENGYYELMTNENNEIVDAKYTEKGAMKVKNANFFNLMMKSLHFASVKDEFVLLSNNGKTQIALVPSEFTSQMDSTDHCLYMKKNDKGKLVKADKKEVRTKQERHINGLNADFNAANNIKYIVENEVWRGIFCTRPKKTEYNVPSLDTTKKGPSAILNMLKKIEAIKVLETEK
Kind of data set: cell_activity; PAM 5'-TTTG-3'. As to conditions: tags: pcDNA3.1 expression. The procedure, abridged:
(§1)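 HEK293T cells were lipofected with nuclease plasmid (pcDNA3.1 backbone) plus RNA guide plasmid, with guide omitted in negative controls. After ~72 h cells were lysed in QuickExtract and % indels were derived from NGS reads, averaged over two bioreplicates and two technical replicates.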

Data set [2] concerns the target T2, variant nuclease D590G combination (P14R, D32R, I61R, E311R, D590G).
T2 chain: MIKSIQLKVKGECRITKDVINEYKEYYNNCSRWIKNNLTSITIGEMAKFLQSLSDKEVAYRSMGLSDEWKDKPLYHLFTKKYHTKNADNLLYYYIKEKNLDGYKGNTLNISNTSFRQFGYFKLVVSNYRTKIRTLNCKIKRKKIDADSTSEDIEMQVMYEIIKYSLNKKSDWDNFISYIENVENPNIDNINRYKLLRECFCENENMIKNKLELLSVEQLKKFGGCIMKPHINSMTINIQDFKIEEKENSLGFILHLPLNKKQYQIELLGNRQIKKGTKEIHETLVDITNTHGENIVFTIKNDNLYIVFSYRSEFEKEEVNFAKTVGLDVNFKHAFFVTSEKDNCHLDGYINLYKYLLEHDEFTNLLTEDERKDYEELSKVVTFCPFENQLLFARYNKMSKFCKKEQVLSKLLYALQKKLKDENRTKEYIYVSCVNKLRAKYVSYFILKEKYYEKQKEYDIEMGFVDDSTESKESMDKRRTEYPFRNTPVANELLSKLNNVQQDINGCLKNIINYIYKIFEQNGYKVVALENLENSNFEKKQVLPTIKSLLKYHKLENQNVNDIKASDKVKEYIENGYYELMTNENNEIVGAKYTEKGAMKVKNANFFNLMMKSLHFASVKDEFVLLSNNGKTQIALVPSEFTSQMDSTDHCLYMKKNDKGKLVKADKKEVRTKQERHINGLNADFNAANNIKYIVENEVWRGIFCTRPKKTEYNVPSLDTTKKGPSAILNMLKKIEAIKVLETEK
Kind of data set: cell_activity; PAM 5'-TTTG-3'. To be noted: tags: pcDNA3.1 expression. The procedure, abridged: as §1

B1: AAVS1 crRNA ; AAVS1 target (ssRNA ; dsDNA)
RNA: CUUGUUGUAUAUGUCCUUUUAUAGGUAUUAAACAACUGAGAAUGGUGCGUCCUAGG
DNA 1: TGAGAATGGTGCGTCCTAGG
DNA 2: CCTAGGACGCACCATTCTCA
In the case of B1, the indel activity in data set [1] is 1.28 fold of WT; in data set [2] it was 5.96 fold of WT.

The values are drawn from US20240035010, “COMPOSITIONS COMPRISING A VARIANT POLYPEPTIDE AND USES THEREOF” (Arbor Biotechnologies, Inc., published 2024).
